Data on six molecules can be found in paper PMC11137577, “Unusual OB-fold protein PrgE and its role in conjugation”.

The term stoichiometry N denotes the number of molecules, sites or subunits per partner or assembly. A word on the Kd: it is the free concentration of one partner at which half of the binding sites on the other are occupied at equilibrium, for simple one-to-one binding.

In series [1] the target is PrgE (Enterococcus faecalis (plasmid pCF10)). Kind of series: SEC-MALS; 60 μM PrgE, Superdex 200 Increase 10/300 GL, 20 mM Hepes pH 7.5, 300 mM NaCl. In general terms: SEC sorts molecules by how far they enter the pores of the column.
Series [2] has as its target T1, PrgE WT (Enterococcus faecalis (plasmid pCF10), UniProt D1LHE9 1-144).
T1 sequence: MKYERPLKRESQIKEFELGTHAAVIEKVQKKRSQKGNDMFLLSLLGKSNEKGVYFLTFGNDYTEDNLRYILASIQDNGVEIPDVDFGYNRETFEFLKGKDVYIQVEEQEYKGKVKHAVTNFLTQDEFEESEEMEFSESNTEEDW
Kind of series: X-ray crystal structure; 15% PEG 400, 50 mM MES pH 6.5, 80 mM Mg acetate, 15 mM MgCl2; 5 nt per subunit; 20 mM Hepes pH 7.5, 50 or 100 mM NaCl, 10 nM FITC-DNA, 0-20 uM protein, 30 min at RT. Particulars: protein: recombinant; tags: C-terminal 10xHis removed with 3C (PreScission) protease; chain copies: 3; single strand.

Series [3] deals with T1, PrgE WT. Kind of series: fluorescence anisotropy; 50 mM NaCl; 20 mM Hepes pH 7.5, 50 or 100 mM NaCl, 10 nM FITC-DNA, 0-20 uM protein, 30 min at RT. Particulars: protein: recombinant, tags: C-terminal 10xHis removed with 3C (PreScission) protease, chain copies: 3. On the technique in general: Polarisation of emitted light reports the rotation of a fluorescent probe.
A further series has as its target ΔN-PrgE (Enterococcus faecalis (plasmid pCF10), UniProt D1LHE9 13-144, del1-12). The description is as above. To be noted: protein: recombinant, tags: C-terminal 10xHis removed with 3C (PreScission) protease.
In series [4] the target is T1, PrgE WT. In words: fluorescence anisotropy; 100 mM NaCl; 20 mM Hepes pH 7.5, 50 or 100 mM NaCl, 10 nM FITC-DNA, 0-20 uM protein, 30 min at RT. To be noted: protein: recombinant, tags: C-terminal 10xHis removed with 3C (PreScission) protease, chain copies: 3.
Series [5] deals with T1, PrgE WT. Kind of series: fluorescence anisotropy; 50 mM NaCl; quadratic fit (Hill coefficient ca 1.5 in Hill fit); 20 mM Hepes pH 7.5, 50 or 100 mM NaCl, 10 nM FITC-DNA, 0-20 uM protein, 30 min at RT. To be noted: protein: recombinant; tags: C-terminal 10xHis removed with 3C (PreScission) protease; chain copies: 3; label: 5' FITC; single strand.
The mark [6] stands for this setting: label: 5' FITC on strand 1, blunt.

In turn, PrgE (natural protein) returned a stoichiometry N in series [1] of 3.

B1: Poly-A 60-mer (ssDNA)
DNA: AAAAAAAAAAAAAAAAAAAAAAAAAAAAAAAAAAAAAAAAAAAAAAAAAAAAAAAAAAAA
As to B1, the binding result with PrgE WT [2] is reported as “binds”.

In the case of CAGTGACAGTCTCCACGGTGAAGCAGTCGT (ssDNA) [30-mer ssDNA], the equilibrium dissociation constant (Kd) came out at 1020 ± 20 nM with PrgE WT [3] (label: 5' FITC, single strand); 3850 ± 490 nM with ΔN-PrgE (label: 5' FITC, single strand); 1840 ± 150 nM with PrgE WT [4] (label: 5' FITC, single strand).

B2: 30-mer dsDNA (dsDNA)
DNA 1: CAGTGACAGTCTCCACGGTGAAGCAGTCGT
DNA 2: ACGACTGCTTCACCGTGGAGACTGTCACTG
On to B2, for which the values for the Kd in the series with PrgE WT [3] (setting [6]), with ΔN-PrgE (setting [6]) and with PrgE WT [4] (setting [6]) were 1960 ± 260 nM, 4390 ± 240 nM and 3360 ± 280 nM, respectively.

B3: 60-mer ssDNA (ssDNA)
DNA: CAGTGACAGTCTCCACGGTGAAGCAGTCGTACCTCTTGACGCATGAATAGATATATGTTA
Regarding B3, the Kd turned out to be 4490 ± 480 nM with ΔN-PrgE (label: 5' FITC, single strand); 330 ± 20 nM in the series with PrgE WT [5]; 370 ± 10 nM with PrgE WT [4] (label: 5' FITC, single strand).

B4: 60-mer dsDNA (dsDNA)
DNA 1: CAGTGACAGTCTCCACGGTGAAGCAGTCGTACCTCTTGACGCATGAATAGATATATGTTA
DNA 2: TAACATATATCTATTCATGCGTCAAGAGGTACGACTGCTTCACCGTGGAGACTGTCACTG
As for B4, the results for the Kd with PrgE WT [3] (setting [6]), in the series with ΔN-PrgE (setting [6]) and with PrgE WT [4] (setting [6]) were 500 ± 140 nM, 5560 ± 190 nM and 950 ± 30 nM, respectively.
